Target: human CXCR5 (human) (UniProt P32302)
Assay: cell-based or functional assay

Chain of UniProt P32302 (P32302 whole entry): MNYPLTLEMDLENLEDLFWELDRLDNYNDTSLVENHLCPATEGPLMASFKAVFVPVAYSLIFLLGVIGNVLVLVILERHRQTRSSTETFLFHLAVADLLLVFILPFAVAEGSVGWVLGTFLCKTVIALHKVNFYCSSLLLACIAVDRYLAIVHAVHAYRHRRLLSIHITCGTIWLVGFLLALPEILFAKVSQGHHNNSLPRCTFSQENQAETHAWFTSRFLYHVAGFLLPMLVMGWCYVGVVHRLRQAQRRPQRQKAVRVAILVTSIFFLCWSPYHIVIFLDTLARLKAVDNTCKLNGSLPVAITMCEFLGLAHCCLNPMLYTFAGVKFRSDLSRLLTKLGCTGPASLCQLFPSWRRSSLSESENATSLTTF

Ca-flux (FLU) at 0 nM rhCXCL13 (baseline): 1680 FLU | Ca-flux (FLU) at 1.95 nM rhCXCL13: 2220 FLU | Ca-flux (FLU) at 3.91 nM rhCXCL13: 1840 FLU | Ca-flux (FLU) at 7.81 nM rhCXCL13: 1860 FLU | Ca-flux (FLU) at 16 nM rhCXCL13: 6160 FLU | Ca-flux (FLU) at 31 nM rhCXCL13: 31100 FLU | Ca-flux (FLU) at 63 nM rhCXCL13: 51900 FLU | Ca-flux (FLU) at 125 nM rhCXCL13: 74700 FLU | Ca-flux (FLU) at 250 nM rhCXCL13: 78400 FLU | Ca-flux (FLU) at 500 nM rhCXCL13: 68100 FLU
Substance: human CXCL13 (from UniProt O43927 23-94) (ligand)
